# Data published in US20250188184A1.
# Substitutions are numbered along the chain they refer to.
# B1: CD3.23-L7 (AC3364) (bispecific antibody, V domains shown)
# VH: EVQLLESGGGIVQPGGSLKLSCAASGFTFNTYAMNWVRQAPGKGLEWVARIRSKYNNYATYYADSVKDRFTISRDDSKNTVYLQMNNLKTEDTAVYYCVRHENFGNSYVSWFAHWGQGTLVTVSS
# VL: ELVVTQEPSLTVSPGGTVTLTCRSSNGAVTSSNYANWVQQKPGQAPRGLIGGTNKRAPGTPARFSGSLLGGKAALTLSGVQPEDEAVYYCALWYPNLWVFGGGTKLTVL
# B2: CD3.83 (AC3412) (bispecific antibody, V domains shown)
# VH: B1 VH with A59G
# VL: B1 VL
# B3: CD3.85 (AC3414) (bispecific antibody, V domains shown)
# VH: B1 VH with Y61D
# VL: B1 VL
# B4: CD3.100 (AC3429) (bispecific antibody, V domains shown)
# VH: B1 VH with N87Q
# VL: B1 VL
# B5: CD3.48 (AC3377) (bispecific antibody, V domains shown)
# VH: B1 VH with A49G
# VL: B1 VL
# B6: CD3.81 (AC3410) (bispecific antibody, V domains shown)
# VH: B1 VH with Y58F
# VL: B1 VL
# B7: CD3.41 (AC3370) (bispecific antibody, V domains shown)
# VH: B1 VH with V48E
# VL: B1 VL
# B8: CD3.56 (AC3385) (bispecific antibody, V domains shown)
# VH: B1 VH with I51T
# VL: B1 VL
# B9: CD3.89 (AC3418) (bispecific antibody, V domains shown)
# VH: B1 VH with Y62E
# VL: B1 VL
# B10: CD3.88 (AC3417) (bispecific antibody, V domains shown)
# VH: B1 VH with Y62D
# VL: B1 VL
# B11: CD3.86 (AC3415) (bispecific antibody, V domains shown)
# VH: B1 VH with Y61E
# VL: B1 VL
# B12: CD3.87 (AC3416) (bispecific antibody, V domains shown)
# VH: B1 VH with Y61T
# VL: B1 VL
# B13: CD3.80 (AC3409) (bispecific antibody, V domains shown)
# VH: B1 VH with Y58G
# VL: B1 VL
# B14: CD3.95 (AC3424) (bispecific antibody, V domains shown)
# VH: B1 VH with D68G
# VL: B1 VL
# B15: CD3.38 (AC3367) (bispecific antibody, V domains shown)
# VH: B1 VH with W47D
# VL: B1 VL
# B16: CD3.40 (AC3369) (bispecific antibody, V domains shown)
# VH: B1 VH with V48A
# VL: B1 VL
# B17: CD3.79 (AC3408) (bispecific antibody, V domains shown)
# VH: B1 VH with N57E
# VL: B1 VL
# B18: CD3.75 (AC3404) (bispecific antibody, V domains shown)
# VH: B1 VH with Y55W
# VL: B1 VL
# B19: CD3.68 (AC3397) (bispecific antibody, V domains shown)
# VH: B1 VH with K54P
# VL: B1 VL
# B20: CD3.42 (AC3371) (bispecific antibody, V domains shown)
# VH: B1 VH with V48G
# VL: B1 VL
# B21: CD3.97 (AC3426) (bispecific antibody, V domains shown)
# VH: B1 VH with Y82G
# VL: B1 VL
# B22: CD3.73 (AC3402) (bispecific antibody, V domains shown)
# VH: B1 VH with Y55P
# VL: B1 VL
# B23: CD3.93 (AC3422) (bispecific antibody, V domains shown)
# VH: B1 VH with A63K
# VL: B1 VL
# B24: CD3.101 (AC3430) (bispecific antibody, V domains shown)
# VH: B1 VH with N87S
# VL: B1 VL
# B25: CD3.69 (AC3398) (bispecific antibody, V domains shown)
# VH: B1 VH with Y55A
# VL: B1 VL
# B26: CD3.84 (AC3413) (bispecific antibody, V domains shown)
# VH: B1 VH with A59T
# VL: B1 VL
# B27: CD3.92 (AC3421) (bispecific antibody, V domains shown)
# VH: B1 VH with Y62W
# VL: B1 VL
# B28: CD3.71 (AC3400) (bispecific antibody, V domains shown)
# VH: B1 VH with Y55G
# VL: B1 VL
# B29: CD3.70 (AC3399) (bispecific antibody, V domains shown)
# VH: B1 VH with Y55R
# VL: B1 VL
# B30: CD3.44 (AC3373) (bispecific antibody, V domains shown)
# VH: B1 VH with V48T
# VL: B1 VL
# B31: CD3.23-D (AC3366) (bispecific antibody, V domains shown)
# VH: B1 VH
# VL: B1 VL
# B32: CD3.72 (AC3401) (bispecific antibody, V domains shown)
# VH: B1 VH with Y55K
# VL: B1 VL
# B33: CD3.98 (AC3427) (bispecific antibody, V domains shown)
# VH: B1 VH with Y82S
# VL: B1 VL
# B34: CD3.78 (AC3407) (bispecific antibody, V domains shown)
# VH: B1 VH with N57D
# VL: B1 VL
# B35: CD3.96 (AC3425) (bispecific antibody, V domains shown)
# VH: B1 VH with Y82D
# VL: B1 VL
# B36: CD3.60 (AC3389) (bispecific antibody, V domains shown)
# VH: B1 VH with R52Q
# VL: B1 VL
# B37: CD3.43 (AC3372) (bispecific antibody, V domains shown)
# VH: B1 VH with V48S
# VL: B1 VL
# B38: CD3.45 (AC3374) (bispecific antibody, V domains shown)
# VH: B1 VH with V48W
# VL: B1 VL
# B39: CD3.91 (AC3420) (bispecific antibody, V domains shown)
# VH: B1 VH with Y62G
# VL: B1 VL
# B40: CD3.77 (AC3406) (bispecific antibody, V domains shown)
# VH: B1 VH with N56E
# VL: B1 VL
# B41: CD3.94 (AC3423) (bispecific antibody, V domains shown)
# VH: B1 VH with A63P
# VL: B1 VL
# B42: CD3.54 (AC3383) (bispecific antibody, V domains shown)
# VH: B1 VH with I51A
# VL: B1 VL
# B43: CD3.39 (AC3368) (bispecific antibody, V domains shown)
# VH: B1 VH with W47E
# VL: B1 VL
# B44: CD3.90 (AC3419) (bispecific antibody, V domains shown)
# VH: B1 VH with Y62Q
# VL: B1 VL
# B45: CD3.102 (AC3431) (bispecific antibody, V domains shown)
# VH: B1 VH with N87Y
# VL: B1 VL
# B46: CD3.67 (AC3396) (bispecific antibody, V domains shown)
# VH: B1 VH with S53T
# VL: B1 VL
# B47: CD3.99 (AC3428) (bispecific antibody, V domains shown)
# VH: B1 VH with N87E
# VL: B1 VL
# B48: CD3.82 (AC3411) (bispecific antibody, V domains shown)
# VH: B1 VH with Y58W
# VL: B1 VL
# B49: CD3.74 (AC3403) (bispecific antibody, V domains shown)
# VH: B1 VH with Y55T
# VL: B1 VL
# Molecular target: CD3 (target of the Pool 1 CD3.23 screen)
# Sequence (P07766 23-126): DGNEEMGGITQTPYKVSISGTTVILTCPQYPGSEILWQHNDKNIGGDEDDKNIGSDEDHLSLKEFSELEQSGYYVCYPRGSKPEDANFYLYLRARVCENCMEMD
# Assay: Octet, crude lysate
row,Kd [nM],Binder
1,8.5,B1
2,8.2,B2
3,939,B3
4,7.1,B4
5,4.5,B5
6,6.1,B6
7,165,B7
8,425,B8
9,9.7,B9
10,63.2,B10
11,183,B11
12,17.9,B12
13,11.3,B13
14,5.4,B14
15,40.2,B15
16,8.3,B16
17,8.3,B17
18,10.5,B18
19,51,B19
20,71.5,B20
21,121,B21
22,33.1,B22
23,8,B23
24,4.8,B24
25,11.5,B25

row,Kd [nM],Binder
1,10.7,B26
2,37.2,B27
3,20.1,B28
4,3.8,B29
5,5.7,B30
6,14,B31
7,5.1,B32
8,9.6,B33
9,7.4,B34
10,9.8,B35
11,434,B36
12,11.2,B37
13,34300,B38
14,8.3,B39
15,575,B40
16,8.2,B41
17,1180,B42
18,18.1,B43
19,7.2,B44
20,5.5,B45
21,4.8,B46
22,5.9,B47
23,7.8,B48
24,11.1,B49
